From the supplement of paper PMC10724198
± gives the standard deviation of the averaged measurements.

System: Saccharomyces cerevisiae
Assay: protein stability index of tFT-peptide fusion (C-terminal peptide) (PSI (0-1 scale)); higher = more stable (slower turnover)
Conditions: temperature: 30 C
Protocol: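 MPS profiling in S. cerevisiae of the yeast C-terminome library: the last 12 aa of each annotated ORF are fused to the C-terminus of a sfGFP-mCherry timer, after a GGGS linker. Cells are FACS-sorted into 8 mCherry/sfGFP bins and deep-sequenced. PSI runs from 0 (unstable) to 1 (stable); wild type and das1Δ backgrounds, two technical replicates each.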

[1] = genetic background: das1 deletion

SFPVVEPMGGST [BDS1 C-terminal 12 aa]
protein stability index [1]: 0.69 ± 0.012
protein stability index (genetic background: wild type): 0.727 ± 0.014

EAAKKSEKKAKK [RPL34A C-terminal 12 aa]
protein stability index [1]: 0.695 ± 0.0092
protein stability index (genetic background: wild type): 0.689 ± 0.023

GKGAIDGFFKRK [RNH202 C-terminal 12 aa]
protein stability index [1]: 0.694 ± 0.03
protein stability index (genetic background: wild type): 0.6575 ± 0.004

DRVQRAFPKPDT [GLG2 C-terminal 12 aa]
protein stability index [1]: 0.704 ± 0.016
protein stability index (genetic background: wild type): 0.686 ± 0.032

TKYKTVTVTAKT [YMR244W C-terminal 12 aa]
protein stability index [1]: 0.652 ± 0.014
protein stability index (genetic background: wild type): 0.71 ± 0.034

SNNATHNCGNYF [YGR122W C-terminal 12 aa]
protein stability index [1]: 0.712 ± 0.049
protein stability index (genetic background: wild type): 0.764 ± 0.01

TASFAGSKKTFD [NSR1 C-terminal 12 aa]
protein stability index [1]: 0.706 ± 0.023
protein stability index (genetic background: wild type): 0.678 ± 0.012

GAAIAAGVAFLF [YCL048W-A C-terminal 12 aa]
protein stability index [1]: 0.716 ± 0.011
protein stability index (genetic background: wild type): 0.538 ± 0.021

MFNASSDIFQRN [YML083C C-terminal 12 aa]
protein stability index [1]: 0.703 ± 0.016
protein stability index (genetic background: wild type): 0.7014 ± 0.0067

DILKILSSSFHN [SPC29 C-terminal 12 aa]
protein stability index [1]: 0.7095 ± 0.0039
protein stability index (genetic background: wild type): 0.709 ± 0.014

LGDSPSQGRSIS [YPK2 C-terminal 12 aa]
protein stability index [1]: 0.685 ± 0.012
protein stability index (genetic background: wild type): 0.688 ± 0.024

HYSPFYQLPLIF [YGR240C-A C-terminal 12 aa]
protein stability index [1]: 0.683 ± 0.022
protein stability index (genetic background: wild type): 0.575 ± 0.0067

CVNSASLNLKKD [MXR2 C-terminal 12 aa]
protein stability index [1]: 0.695 ± 0.023
protein stability index (genetic background: wild type): 0.682 ± 0.035

EELFEEDSFYKY [NDT80 C-terminal 12 aa]
protein stability index [1]: 0.736 ± 0.011
protein stability index (genetic background: wild type): 0.759 ± 0.019

EGSGEFVGEMEI [MRS6 C-terminal 12 aa]
protein stability index [1]: 0.708 ± 0.0019
protein stability index (genetic background: wild type): 0.714 ± 0.067

LEDQDGSLYLNY [PFU1 C-terminal 12 aa]
protein stability index [1]: 0.712 ± 0.011
protein stability index (genetic background: wild type): 0.662 ± 0.025

AMDYAISIENIV [RPN12 C-terminal 12 aa]
protein stability index [1]: 0.665 ± 0.015
protein stability index (genetic background: wild type): 0.646 ± 0.015

QSLPPTLKVNRL [RPL38 C-terminal 12 aa]
protein stability index [1]: 0.672 ± 0.012
protein stability index (genetic background: wild type): 0.65859 ± 0.00042

TKARTLGEGSVN [YDR476C C-terminal 12 aa]
protein stability index [1]: 0.686 ± 0.032
protein stability index (genetic background: wild type): 0.674 ± 0.021

SLKDLIMQVTKM [CTO1 C-terminal 12 aa]
protein stability index [1]: 0.753 ± 0.046
protein stability index (genetic background: wild type): 0.654 ± 0.069

NIREARYEQQLK [CTF4 C-terminal 12 aa]
protein stability index [1]: 0.733 ± 0.035
protein stability index (genetic background: wild type): 0.689 ± 0.03

YAVKDKIETLLI [SNU13 C-terminal 12 aa]
protein stability index [1]: 0.7019 ± 0.0055
protein stability index (genetic background: wild type): 0.725 ± 0.12

FILKAKLEWIKW [YOL075C C-terminal 12 aa]
protein stability index [1]: 0.515 ± 0.018
protein stability index (genetic background: wild type): 0.578 ± 0.11

PKDLTSLLEWKE [CLA4 C-terminal 12 aa]
protein stability index [1]: 0.7005 ± 0.006
protein stability index (genetic background: wild type): 0.681 ± 0.044

AKGLAKTEIANQ [GIR2 C-terminal 12 aa]
protein stability index [1]: 0.686 ± 0.018
protein stability index (genetic background: wild type): 0.656 ± 0.013

GAGIMALIGKWA [ZRT1 C-terminal 12 aa]
protein stability index [1]: 0.687 ± 0.017
protein stability index (genetic background: wild type): 0.661 ± 0.022

DAIDNSDEITQD [IRR1 C-terminal 12 aa]
protein stability index [1]: 0.709 ± 0.029
protein stability index (genetic background: wild type): 0.703 ± 0.064

SFVTKKKAACYR [YIL025C C-terminal 12 aa]
protein stability index [1]: 0.717 ± 0.011
protein stability index (genetic background: wild type): 0.706 ± 0.0072

EQLADYLIGVQY [PFY1 C-terminal 12 aa]
protein stability index [1]: 0.686 ± 0.014
protein stability index (genetic background: wild type): 0.6754 ± 0.0032

KAIEYFEEYQSW [FRE3 C-terminal 12 aa]
protein stability index [1]: 0.721 ± 0.021
protein stability index (genetic background: wild type): 0.6952 ± 0.0065

KTSLKITHRRVI [YGL117W C-terminal 12 aa]
protein stability index [1]: 0.7424 ± 0.0067
protein stability index (genetic background: wild type): 0.658 ± 0.0094

LTSYINVHLVYV [YNL285W C-terminal 12 aa]
protein stability index [1]: 0.301 ± 0.016
protein stability index (genetic background: wild type): 0.325 ± 0.0042

GLEFHDVEDRIA [PEX18 C-terminal 12 aa]
protein stability index [1]: 0.7047 ± 0.0036
protein stability index (genetic background: wild type): 0.702 ± 0.013

RRFDVYSDVNAH [NIT3 C-terminal 12 aa]
protein stability index [1]: 0.71 ± 0.0033
protein stability index (genetic background: wild type): 0.677 ± 0.044

PTQPTVSNKKNN [GPI14 C-terminal 12 aa]
protein stability index [1]: 0.7252 ± 0.0055
protein stability index (genetic background: wild type): 0.68 ± 0.022

LARTDVNFMPWF [TRA1 C-terminal 12 aa]
protein stability index [1]: 0.72 ± 0.0086
protein stability index (genetic background: wild type): 0.744 ± 0.031

YVVTSDEHPKTL [SIR2 C-terminal 12 aa]
protein stability index [1]: 0.724 ± 0.0073
protein stability index (genetic background: wild type): 0.6955 ± 0.0043

KETDKVNDENSI [MLP1 C-terminal 12 aa]
protein stability index [1]: 0.708 ± 0.0044
protein stability index (genetic background: wild type): 0.756 ± 0.059

EFHQDFFSKYRN [ALT2 C-terminal 12 aa]
protein stability index [1]: 0.707 ± 0.011
protein stability index (genetic background: wild type): 0.729 ± 0.027

ILRNASQIVSSV [VPS1 C-terminal 12 aa]
protein stability index [1]: 0.7029 ± 0.0038
protein stability index (genetic background: wild type): 0.6942 ± 0.0029

DERRQPVSNLRM [YDL163W C-terminal 12 aa]
protein stability index [1]: 0.712 ± 0.018
protein stability index (genetic background: wild type): 0.658 ± 0.01
